The values below come from paper PMC5293257.

Test [1] addresses fibronectin (human (endogenous in dHL-60)) (UniProt P02751).
The target is the same in test [2]. The source holds these as a separate data set.

Consider “integrin α5β1 (from UniProt P08648 42-1049; P05556 21-798) (receptor)”, for which, in test [1], the adhesion of K562 cells to NETs coated plates (NETs from dHL-60 stimulated in serum free conditions), percentage of adherent cells came out at 62% and the adhesion of K562 cells to NETs coated plates (serum free NETs) with anti-integrin blocking Ab, percentage of adherent cells was 10%. In addition, in test [2], the adhesion of K562 cells to NETs coated plates (NETs from dHL-60 stimulated with 10% FBS), percentage of adherent cells stood at 59% and the adhesion of K562 cells to NETs coated plates with anti-α5β1 blocking antibody (P1D6), percentage of adherent cells was 24%.
